Source: the DeepSol protein solubility set

Test: soluble on expression in E. coli; label from the status in PepcDB or PDB records

Sequence | soluble on expression in E. coli
MSLSDAAISCSWKPFFRELATRLLDYEDRQPELLAALRDASISINHDEGEPLREVDPFTFFSLVLKHTSDATALPLFARVGAALGVQAPSPTDLIGVPWSNPMNAWFFAYRSQRQPGDVPLLWRLARQAVAGILDAQTFEDALKIRKVALPKLTQGLFWLNPERFLALNAVNVPYLQARGLQAAGQVQTLAEYETVLEAAHKLNPDFAALSHRAWLNSQTAALEGNHFPFARYQADAQEFAGDKVKGNLVLDRRYAPLLLDLMAGEWETLKPSRSPYSGREQLAVKVALGGGVKTDGGAFARALLFADDSGFEYVPFSAGLTLEAGLPDGRGDGPRQALQEPARQHTLLTALNAPLPAGLEATLTLNTDFGALFLLPLGPGREAEAAQQLQQYMSGVGRSRRLRVGLSLLPEHLESDKFPELLDAALTYLDALVDLLDGLMRPSEETSTEEIGVPGTRPVAPTPAAFVPVPGVPLNQILYGPPGTGKTYRVVDEALSVLDPAFLSAHPGSEGRAARKARYDELAAQGQISFVTFHQSFGYEDFIEGIKPVMSGGALSYVLQDGVFLEAVRSAGGALAPAAPEAGPSTETQPLVRPDAQVWRMYIDGTAPVSRIRDLSLGRGELRMGSYGKPPRDLTQAGVEDLSGRQLLFKESVRVGDLMLLATAADRIGAVGVVTGDYRFDPHSDPTFATDYAHTRSVKWLAQDLNVGATETLGKSFAPPTLQRVADVTPAQVLQALGVSTAGGETAHAPTPRPHVLIIDEINRGNISKIFGELITLLESGKRTGAPEALTVTLPLSRRPLSVPQSLYVIGTMNTADRSLTLLDAALRRRFVFRPVWPQPEVLPVLDLGGTALDLRKFLHVINDRIERLLSREQVIGHAYLLGLPATLGGVSSALRERILPLLEEYFFEDWSKIREVLGDESKAEALQFIHRSGSGPELRYRLNPEAFENIEAFTGVYAGVSDQDFPFDEGHHHHHH | soluble
MISVFDIFKIGIGPSSSHTVGPMKAGKQFTDDLIARHILTDVTRVVVDVYGSLSLTGKGHHTDIAIIMGLAGNLPDTVDIDAIPSFIQDVNTHGRLLLANGQHEVEFPVDKCMNFHADNLSLHENGMRITALAGDKVLYSQTYYSIGGGFIVDEEHFGLTNSEPVNVPYPYKTAADLQRHCQETGLSLSGLMMQNELALHSKEALEQHFARVWEVMRSGIERGITTEGVLPGKLRVPRRAAALRRMLVSQDKTTTDPMAVVDWINMFALAVNEENAAGGRVVTAPTNGACGIVPAVLAYYDKFIREVNANSLARYMLVASAIGSLYKMNASISGAEVGCQGEVGVACSMAAAGLAELLGGSPAQVCIAAEIAMEHNLGLTCDPVAGQVQVPCIERNAIASVKAVNAARMAVRRTSEPRVCLDKVIETMYETGKDMNAKYRETSRGGLAMKIVTCD | not soluble
MSLGDSNSSTPLPDTSYACQANVMTQSNQLRTYQIMVESFVDGDTSIGHGTGYGTSHHNGDLQGVIDSLDYIQDLGMNAIWLTPVFESEAIAGQDHWADRLDATGYFATDYFKIDPKFGDLATAKTLVEEAHKRGLYVFFDGVFGHHKNGLIKPSPSGLLPSGSSNPVDYPASLDFYKEVATYWIKELKIDGWRLDQAYQVPTDAWTQLRKAVDEASQSVTYTNSKGDQVNPLGYMVAEIWKGESEIANEAYGSNSDPALCSAFDFPMRYRIVETLAVNESGVGGRGVDWLDNGYSTHNQYPTHAQPNLMIGNHDLVRFGDLLQRGNLADVNDAEYWLRHKAAFAFQAAYTGPITLYYGDEIGDQVDGFAAKEDNNTCAIQGLCDDHVARSSAKIEGVTATLDANQADLKAYVTSLMTMRDTHPALYQGSRTNLVASNGSYVDLKQSGSDKVLFALNTLESARTVILAQESVGTGELVDLLTNEKIAPSNGQYQLPMSPLQGRFFAVTEGHHHHHH | soluble
MKRLLLLGGIGEALALARRLGPAHLYSLAGLGKVPGDLACRVRVGGYGGAEGLAAFIDEQGFDLLVDATHPYAARISQNAVRAARLAGVPCWALRRPGWQAGPGDDWREVADWRELIAALTPFRRPLFTLGREPLEHLGQVPPHQHWTVRCLQGQPAAPRAEVIGARGPFSLDGERALFERLACDVLVSKNSGSQATEPKLQVAREMGLPVLVLARPALPPADREFADGEALLTAIRDWESA | not soluble
MSLKVGISMFNILQSTQLSSNTFDFWLEAPRIATHAQAGQFVILRIDEKGERIPLTIAETNPQAGSIRIIFQVIGKTTAALSQLKTSDSLLDITGPLGMPTEVKQYGTVMVVGGGVGIAAIYPIIKALKEAGNRVITILGARTAELVLLQEECRRYSDELIITTDDGSLGKKGLVTEAMEEVIARESVACSWAIGPSIMMKFCTLTAEKHQLPIYVSLNPIMIDGTGMCGGCRVTVDGTMKFACVDGPEFKGNEVNWDEFINRMKQYQEEEAVCFTDRLKEQVEKNGEGGSHHHHHH | soluble
MAHHHHHHMIPRYDGLVPAIRGPASACAVASVNATPSSTTKRTAAATTVARYVICPVETTGTENAHVNATAERERRLFAFLPSVDCAAPPRELRVSSHYFEDALVASVASSDAESGEDLDEGEESHTSTARRGNTREDGAHGSNSGSRKRRRARRREPMRLEYDGFLAPATEATKRVRLVSTPASEYSHLTCVLLQLPTAWREQDMDEGEGHGRTACVSSSSTSKPLITSMPLRRPILQLWGERNTAAAGPNDGSLCTGSSAASISAAWGSDTRLQISKKDWKTMDAAEEDLHKPTNWSDDDGGDASDEGRGKSASGADDAISARARKREREEATSIAVRSFLAGTKEALRQQGAVGAADGFAQPQPAVRSDNAAPVSARVETSAPVKAAAKRATVTVPLSSGSSGSRVRSSVATPAVPPTHALTTNSAAPLPSSGVAPPDGSASLDSLACTVVTGMLSSEARRAATLMELQKRILKQLPEFATMSQKMKSTATKQEAVAWFQTSQQALRAWLVEHGHTIDSDGTVTFGDA | not soluble
TPVLIRQLANKDRAREFSFLKDLGKDIAHFRFLGSFSTHAKVHDQLMDIDLHNRMAYIALAYDNDELTEIGVARYGAYEGDAHCEFAIAVSEKWQRRGVATALLKRLMETATKEGFSKISSMDASKNLAMDGLATSMGFTCRVDEKHGPRIFHEYVLVQ | not soluble
MTVSTPEQHEQRASHDASEGKHNVCQGRLAALADAAVSEKLGALPGWQLLDMRLSRAFQCTNFDQSIDFMNRVASIANDINHHPDIAVLDKRSVRVTAWTRKLGYLTDIDFDLAASVEAMYATEFADRPAR | soluble
MGSDKIHHHHHHMRKILLPYPAGCATGTFVRRVKRFSVEMTRDGESVWVHSNNSGSMLGLLRPGATMLASPAANPDRKLAWTHEAMRCHGDGPQGFWVGVNTSVPNRMVEAAFHAGRLPWAQGYDTFRRERKRGDSRLDARLDGPGLPTLWVECKNVTMVEDDVACFPDAVTERGSKHLREMMDIVSRGERAAMFYLVQRPDGLCFGPADVIDPQYAALFWEAVDAGVEMYPHRGIVSPVGIDLSGVLPLTRCR | not soluble
NTKQLRFEDVVNQSSPKNCTVYCGGIASGLTDQLMRQTFSPFGQIMEIRVFPEKGYSFVRFSTHESAAHAIVSVNGTTIEGHVVKCYWGKESPDMT | soluble
MSSSLFAPTIETIDYPFPPKPVPLSDAQKADYKARIKQLLIEKDAVLVAHYYTDPEIQALAEETGGCVSDSLEMARFGRDHPAKTLIVAGVKFMGETAKILSPEKTILMPTLEATCSLDLGCPIDKFSAFCDAHPDHTVVVYANTSAAVKARADWVVTSSIALEIVEHLDSEGKKIIWGPDRHLGSYIAKQTGAEMLMWQGDCIVHDEFKANALRDLKSVYPDAAILVHPESPASVVAMADAVGSTSQLIKAAQTMPNERFIVATDRGIFYKMQQAAPGKTLIEAPTGGNGATCKSCAHCPWMAMNGLKAIEASLSNSDKTTHEIFVDEDLRVKALIPLTRMLDFAKTLNMKVKGNA | soluble
MTLEKFVDALPIPDTLKPVQQSKEKTYYEVTMEECTHQLHRDLPPTRLWGYNGLFPGPTIEVKRNENVYVKWMNNLPSTHFLPIDHTIHHSDSQHEEPEVKTVVHLHGGVTPDDSDGYPEAWFSKDFEQTGPYFKREVYHYPNQQRGAILWYHDHAMALTRLNVYAGLVGAYIIHDPKEKRLKLPSDEYDVPLLITDRTINEDGSLFYPSAPENPSPSLPNPSIVPAFCGETILVNGKVWPYLEVEPRKYRFRVINASNTRTYNLSLDNGGDFIQIGSDGGLLPRSVKLNSFSLAPAERYDIIIDFTAYEGESIILANSAGCGGDVNPETDANIMQFRVTKPLAQKDESRKPKYLASYPSVQHERIQNIRTLKLAGTQDEYGRPVLLLNNKRWHDPVTETPKVGTTEIWSIINPTRGTHPIHLHLVSFRVLDRRPFDIARYQESGELSYTGPAVPPPPSEKGWKDTIQAHAGEVLRIAATFGPYSGRYVWHCHILEHEDYDMMRPMDITDPHK | soluble
